Values quoted from earlier work in publication PMC4616163, “Inverse relationship between chitobiase and transglycosylation activities of chitinase-D from Serratia proteamaculans revealed by mutational and biophysical analyses” (Scientific Reports, 2015).

Parameters: method as in PMID 11160110, PMID 18368288
Conditions: other chitinases, literature

B1: SmChiA: mesophilic chitinase (protein, UniProt P07254 24-563, looked up)
Chitinase A: AAPGKPTIAWGNTKFAIVEVDQAATAYNNLVKVKNAADVSVSWNLWNGDAGTTAKILLNGKEAWSGPSTGSSGTANFKVNKGGRYQMQVALCNADGCTASDATEIVVADTDGSHLAPLKEPLLEKNKPYKQNSGKVVGSYFVEWGVYGRNFTVDKIPAQNLTHLLYGFIPICGGNGINDSLKEIEGSFQALQRSCQGREDFKVSIHDPFAALQKAQKGVTAWDDPYKGNFGQLMALKQAHPDLKILPSIGGWTLSDPFFFMGDKVKRDRFVGSVKEFLQTWKFFDGVDIDWEFPGGKGANPNLGSPQDGETYVLLMKELRAMLDQLSAETGRKYELTSAISAGKDKIDKVAYNVAQNSMDHIFLMSYDFYGPFDLKNLGHQTALNAPAWKPDTAYTTVNGVNALLAQGVKPGKVVVGTAMYGRGWTGVNGYQNNIPFTGTATGPVKGTWKNGIVDYRQIAGQFMSGEWQYTYDATAEAPYVFKPSTGDLITFDDARSVQAKGKYVLDKQLGGLFSWEIDADNGDILNSMNASLGNSAGVQ
In the case of B1, the Tm is listed as 64.2 °C.
